Data taken from the supplement of paper PMC9112550, “Optimization of the antimicrobial peptide Bac7 by deep mutational scanning” (BMC Biology, 2022).

system: Escherichia coli TOP10; test: shrunken log2 fold change of peptide-encoding DNA abundance (4.5 h post-induction vs induction); higher = less antimicrobial activity (less host growth inhibition); details: time post-induction: 4.5 h; library: site-saturation at positions 5, 18, 19, 20
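Also: peptides expressed intracellularly from a pBAD plasmid library in pooled LB shake-flask culture, induced with 0.3% L-arabinose, DNA abundance read by NGS, three biological replicates, DESeq2 with apeglm shrinkage.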

Sequence	shrunken log2 fold change
RRIRGRPPRLPRPRPRPMLRPRP	0.117
RRIRFRPPRLPRPRPRPMHAPRP	0.0753
RRIRWRPPRLPRPRPRPNDHPRP	-0.0566
RRIRYRPPRLPRPRPRPSLAPRP	0.0395
RRIRERPPRLPRPRPRPMFRPRP	-0.737
RRIRSRPPRLPRPRPRPNIWPRP	-0.0665
RRIRHRPPRLPRPRPRPCHTPRP	-0.0375
RRIRRRPPRLPRPRPRPMQNPRP	0.362
RRIRFRPPRLPRPRPRPPYHPRP	-0.454
RRIRHRPPRLPRPRPRPDIPPRP	-0.193
RRIRYRPPRLPRPRPRPNYQPRP	-0.79
RRIRWRPPRLPRPRPRPIQEPRP	-0.0126
RRIRIRPPRLPRPRPRPQKNPRP	-0.355
RRIRMRPPRLPRPRPRPFKHPRP	-0.306
RRIRCRPPRLPRPRPRPKWTPRP	-0.0568
RRIRVRPPRLPRPRPRPLIHPRP	-0.393
RRIRIRPPRLPRPRPRPYRHPRP	-0.0614
RRIRDRPPRLPRPRPRPYYFPRP	-0.209
RRIRDRPPRLPRPRPRPLHIPRP	-0.0915
RRIRYRPPRLPRPRPRPEPSPRP	-0.0733
RRIRLRPPRLPRPRPRPPKTPRP	0.175
RRIRWRPPRLPRPRPRPNIFPRP	0.0551
RRIRIRPPRLPRPRPRPSCNPRP	-0.576
RRIRWRPPRLPRPRPRPGAPPRP	0.641
RRIRGRPPRLPRPRPRPSANPRP	0.858

Sequence	shrunken log2 fold change
RRIRYRPPRLPRPRPRPFSDPRP	-0.03
RRIRDRPPRLPRPRPRPWMFPRP	-0.0535
RRIRSRPPRLPRPRPRPQKNPRP	-0.247
RRIRVRPPRLPRPRPRPWHFPRP	-0.0232
RRIRQRPPRLPRPRPRPEAGPRP	0.109
RRIRIRPPRLPRPRPRPEILPRP	-0.0902
RRIRPRPPRLPRPRPRPMSHPRP	0.0914
RRIRVRPPRLPRPRPRPYQKPRP	-0.0384
RRIRHRPPRLPRPRPRPKQFPRP	-0.108
RRIRPRPPRLPRPRPRPVKMPRP	0.137
RRIRSRPPRLPRPRPRPTMWPRP	0.214
RRIRRRPPRLPRPRPRPDVPPRP	0.0826
RRIRHRPPRLPRPRPRPVAGPRP	0.26
RRIRGRPPRLPRPRPRPQNWPRP	0.0915
RRIRMRPPRLPRPRPRPYYRPRP	0.0143
RRIRFRPPRLPRPRPRPQTYPRP	-0.69
RRIRVRPPRLPRPRPRPFFRPRP	0.0448
RRIRERPPRLPRPRPRPPCYPRP	-0.396
RRIRNRPPRLPRPRPRPCGLPRP	0.0441
RRIRDRPPRLPRPRPRPPWWPRP	0.461
RRIRTRPPRLPRPRPRPEPPPRP	0.395
RRIRGRPPRLPRPRPRPVMHPRP	0.575
RRIRCRPPRLPRPRPRPGRRPRP	1.11
RRIRFRPPRLPRPRPRPRMRPRP	0.608
RRIRERPPRLPRPRPRPYQIPRP	-0.388

Sequence	shrunken log2 fold change
RRIRFRPPRLPRPRPRPVRCPRP	0.308
RRIRGRPPRLPRPRPRPSLYPRP	0.189
RRIRDRPPRLPRPRPRPIKFPRP	-0.236
RRIRDRPPRLPRPRPRPCWSPRP	-0.00281
RRIRQRPPRLPRPRPRPKKAPRP	-0.15
RRIRWRPPRLPRPRPRPTPGPRP	0.572
RRIRQRPPRLPRPRPRPAQQPRP	0.00707
RRIRYRPPRLPRPRPRPNKWPRP	0.0191
RRIRERPPRLPRPRPRPAIMPRP	-0.299
RRIRYRPPRLPRPRPRPRGWPRP	0.575
RRIRTRPPRLPRPRPRPQMNPRP	-0.345
RRIRIRPPRLPRPRPRPQFQPRP	-0.166
RRIRKRPPRLPRPRPRPEFGPRP	0.0185
RRIRGRPPRLPRPRPRPNYDPRP	0.134
RRIRIRPPRLPRPRPRPHFKPRP	-0.368
RRIRWRPPRLPRPRPRPRHCPRP	0.0392
RRIRCRPPRLPRPRPRPCHDPRP	-0.69
RRIRTRPPRLPRPRPRPVAGPRP	-0.0116
RRIRWRPPRLPRPRPRPLPQPRP	0.248
RRIRHRPPRLPRPRPRPLMLPRP	-0.0972
RRIRYRPPRLPRPRPRPVMFPRP	-0.899
RRIRSRPPRLPRPRPRPPHWPRP	0.5
RRIRKRPPRLPRPRPRPCMHPRP	-0.0309
RRIRKRPPRLPRPRPRPHMDPRP	0.0185
RRIRQRPPRLPRPRPRPAQWPRP	0.166
